According to doi:10.1101/2023.08.25.554918 (bioRxiv, 2023):

Columns and labels:
Assay in all cases: SEC
[1] = target: Chimera 1 (Pfu1-Pfu2-Ton3) (Pyrococcus furiosus | Thermococcus onnurineus)
[2] = target: Chimera 5 (Pfu1-Ton2-Ton3) (Pyrococcus furiosus | Thermococcus onnurineus)
[3] = target: Chimera 2 (Pfu1-Ton2-Pfu3) (Pyrococcus furiosus | Thermococcus onnurineus)
[4] = target: Chimera 3 (Ton1-Ton2-Pfu3) (Thermococcus onnurineus | Pyrococcus furiosus)
[5] = target: Chimera 4 (Ton1-Pfu2-Ton3) (Thermococcus onnurineus | Pyrococcus furiosus)
[6] = target: Domain 1 of PfuAmyGT (Pfu1) (Pyrococcus furiosus)
[7] = target: Chimera 6 (Ton1-Pfu2-Pfu3) (Thermococcus onnurineus | Pyrococcus furiosus)
SEC = target: the molecule itself

Question: Chimera 1 (Pfu1-Pfu2-Ton3) (enzyme) was tested. Which stoichiometry N [1] did it give?
Answer: 2

Question: For Chimera 5 (Pfu1-Ton2-Ton3) (enzyme), which stoichiometry N [2] is on record?
Answer: 2

Question: How did the stoichiometry N [3] turn out when Chimera 2 (Pfu1-Ton2-Pfu3) (enzyme) was run?
Answer: 2

Question: For Chimera 3 (Ton1-Ton2-Pfu3) (enzyme), which stoichiometry N [4] is on record?
Answer: 2

Question: Chimera 4 (Ton1-Pfu2-Ton3) (enzyme) was tested. Which stoichiometry N [5] did it give?
Answer: 2

Question: With “Domain 1 of PfuAmyGT (Pfu1) (domain or fragment)” as the molecule, how does the stoichiometry N [6] read?
Answer: 4

Question: How did the stoichiometry N [7] turn out when Chimera 6 (Ton1-Pfu2-Pfu3) (enzyme) was run?
Answer: 2

B1: PfuAmyGT (Pfu1-Pfu2-Pfu3), GH57 4-α-glucanotransferase from Pyrococcus furiosus (enzyme)
chain: MGDKINFIFGIHNHQPLGNFGWVFEEAYEKCYWPFLETLEEYPNMKVAIHTSGPLIEWLQDNRPEYIDLLRSLVKRGQVEIVVAGFYEPVLASIPKEDRIEQIRLMKEWAKSIGFDARGVWLTERVWQPELVKTLKESGIDYVIVDDYHFMSAGLSKEELYWPYYTEDGGEVIAVFPIDEKLRYLIPFRPVDKVLEYLHSLIDGDESKVAVFHDDGEKFGIWPGTYEWVYEKGWLREFFDRISSDEKINLMLYTEYLEKYKPRGLVYLPIASYFEMSEWSLPAKQARLFVEFVNELKVKGIFEKYRVFVRGGIWKNFFYKYPESNYMHKRMLMVSKLVRNNPEARKYLLRAQCNDAYWHGLFGGVYLPHLRRAIWNNLIKANSYVSLGKVIRDIDYDGFEEVLIENDNFYAVFKPSYGGSLVEFSSKNRLVNYVDVLARRWEHYHGYVESQFDGVASIHELEKKIPDEIRKEVAYDKYRRFMLQDHVVPLGTTLEDFMFSRQQEIGEFPRVPYSYELLDGGIRLKREHLGIEVEKTVKLVNDGFEVEYIVNNKTGNPVLFAVELNVAVQSIMESPGVLRGKEIVVDDKYAVGKFALKFEDEMEVWKYPVKTLSQSESGWDLIQQGVSYIVPIRLEDKIRFKLKFEEASG
Question: How did the “stoichiometry N” value (SEC) turn out when B1 was run?
Answer: 2
